According to paper PMC6726451 (Science Advances, 2019):

How the values were obtained:
[1] = target: the molecule itself; test: SEC
[2] = target: the molecule itself; test: SEC-MALS

B1: caseinolytic protease ClpP from Thermus thermophilus (TtClpP) (enzyme)
chain: not shown
[1]
  stoichiometry N: 7
[2]
  stoichiometry N: 14
